Measured values as given in article PMC6668613 (Nature plants, 2019).
Read-outs that look alike come from different tables or passages of the source. Ends that are not written are not given here.

T1: GST-MPK3 (Arabidopsis thaliana, UniProt Q39023 1-370)
T1 sequence (looked up): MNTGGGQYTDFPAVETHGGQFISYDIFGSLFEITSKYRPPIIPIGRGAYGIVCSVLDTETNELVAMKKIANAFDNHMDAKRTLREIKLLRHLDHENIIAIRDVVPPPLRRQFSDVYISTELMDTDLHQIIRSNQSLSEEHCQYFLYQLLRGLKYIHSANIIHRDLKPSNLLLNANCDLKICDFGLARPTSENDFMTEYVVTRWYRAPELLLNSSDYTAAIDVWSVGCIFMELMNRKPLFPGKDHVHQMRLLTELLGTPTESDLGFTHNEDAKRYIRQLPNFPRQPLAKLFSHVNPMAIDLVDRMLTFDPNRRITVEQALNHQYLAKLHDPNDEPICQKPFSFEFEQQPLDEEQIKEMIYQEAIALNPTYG

B1: SCRM KiDoK full-length peptide, biotinylated (peptide)
chain: GGFVGNRAKVLKPLEVLASSGAQPTLFQKRAAMRQ
modifications: also: biotinylated, position not given here
B2: KRAAM motif peptide, biotinylated (peptide)
chain: ASSGAQPTLFQKRAAMRQ
modifications: also: biotinylated, position not given here
B3: Docking motif peptide, biotinylated (peptide)
chain: GGFVGNRAKVLKPLEVL
modifications: also: biotinylated, position not given here

Tests used:
Experiment in all cases: BLI
GST-MPK6 [1] = target: T2, GST-MPK6 (Arabidopsis thaliana, UniProt Q39026 1-395)
GST-MPK3 = target: T1, GST-MPK3
GST-MPK6 [2] = target: T2, GST-MPK6; remark: listed apart in the source

T2 sequence (Q39026 whole entry): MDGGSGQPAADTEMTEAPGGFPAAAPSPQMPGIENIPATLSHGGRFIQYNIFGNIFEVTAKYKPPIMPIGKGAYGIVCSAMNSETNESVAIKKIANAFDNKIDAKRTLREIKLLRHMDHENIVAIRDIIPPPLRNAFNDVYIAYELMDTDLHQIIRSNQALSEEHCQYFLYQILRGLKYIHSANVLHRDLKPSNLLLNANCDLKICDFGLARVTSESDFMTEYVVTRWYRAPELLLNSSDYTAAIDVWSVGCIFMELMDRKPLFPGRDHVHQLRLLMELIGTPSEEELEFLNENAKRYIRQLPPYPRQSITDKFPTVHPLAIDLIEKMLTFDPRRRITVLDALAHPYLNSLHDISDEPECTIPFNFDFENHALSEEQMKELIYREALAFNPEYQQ

Binder | Kd (GST-MPK6 [1]) | Kd (GST-MPK3) | Kd (GST-MPK6 [2])
B1 | 47 ± 6 nM |  | 
B2 |  | 2800 ± 700 nM | 2400 ± 400 nM
B3 |  |  | 2300 ± 500 nM
